This note sets out measurements from patent US7083949.

Assay [1] concerns the target human IL-6 (human) (UniProt P05231). Nature of the assay: cell-based or functional assay.
Assay [2] has the same target. Nature of the assay: 20 pM 125I-IL-6 preincubated with 500 pM mAb B-E8 for 20 hours, chase with 20 nM unlabelled IL-6, Protein G-Sepharose precipitation.

Bounds are passed on as bounds.

Chain of human IL-6 (human) (P05231 30-212 limits assumed): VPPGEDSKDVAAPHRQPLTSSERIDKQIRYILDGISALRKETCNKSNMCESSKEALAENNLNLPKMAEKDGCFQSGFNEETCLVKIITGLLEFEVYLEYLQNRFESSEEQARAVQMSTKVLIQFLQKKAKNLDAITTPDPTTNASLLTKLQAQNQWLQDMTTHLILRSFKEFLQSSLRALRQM

B1: anti-IL-6 monoclonal neutralizing antibody B-E8 (antibody, from another filing, V domains shown)
VH: QVTLKESGPGILKPSQTLSLTCSFSGFSLSTSGMGVGWIRQPSGKGLEWLAHIWWDDDKYYNPSLKSQLTISKDTSRNQVFLKITSVDTADTATYYCARSYDDYLYYALDYWGQGTSVTVSS
VL: DIVMTQSPATLSVTPGDRVSLSCRASQSISDYLHWYQQKSHESPRLLIKSVSQSISGIPSRFSGSGSGSDFTLSINSVEPEDVGVYYCQNGHSFPLTFGAGTKLELK
In turn, B1 registered an inhibition of IL-6-dependent proliferation of XG-1 cells (MTT) (fold molar excess over IL-6) with human IL-6 (human) [1] of 10. Also, in the assay with human IL-6 (human) [2], the percent of initial 125I-IL-6 counts still bound after three days is under 5%.
